In PMC9482095:
Read-outs that look alike come from different tables or passages of the source.

B1: dsIRE (dsDNA)
DNA 1: TAAGCTAGTGGTTTGTTTTGCTTGCTAGCAAT
DNA 2: ATTGCTAGCAAGCAAAACAAACCACTAGCTTA
B2: dsDBE2 (dsDNA)
DNA 1: TAAGCTAGTCTTGTTTACATTTTGCTAGCAAT
DNA 2: ATTGCTAGCAAAATGTAAACAAGACTAGCTTA

Legend:
FOXO1 FKH L183P [1] = biological target: T1, FOXO1 FKH L183P (UniProt Q12778 151-265, L183P); assay: EMSA
FOXO1 FKH L183P [2] = biological target: T1, FOXO1 FKH L183P; assay: EMSA; remark: listed apart in the source

T1 sequence (Q12778 151-265 L183P): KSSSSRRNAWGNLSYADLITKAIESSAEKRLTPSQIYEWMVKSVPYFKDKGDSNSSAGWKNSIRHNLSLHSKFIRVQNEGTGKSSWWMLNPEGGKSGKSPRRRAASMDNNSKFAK

| Binder | Kd (FOXO1 FKH L183P [1]) [nM] | Kd (FOXO1 FKH L183P [2]) [nM] |
| --- | --- | --- |
| B1 | 460 ± 100 |  |
| B2 |  | 230 |
